Measured values taken from patent US20180155451A1 (published 2018).

T1: FcγRIIb (human, UniProt P31994 43-217)
T1 construct: extracellular domain; also called FcgRIIb; 2b; not shown: His tag at the C terminus
T1 sequence (looked up): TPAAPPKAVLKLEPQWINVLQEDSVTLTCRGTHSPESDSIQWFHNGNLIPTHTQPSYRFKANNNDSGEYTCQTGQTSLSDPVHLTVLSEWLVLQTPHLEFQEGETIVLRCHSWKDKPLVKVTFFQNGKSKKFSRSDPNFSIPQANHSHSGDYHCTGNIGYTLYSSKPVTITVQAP


What was measured:
[1] = biological target: T2, FcγRIa (human, UniProt P12314 16-292); assay: SPR (Biacore); He/Con_1a (FcγRIa) divided by He/Con_2b (FcγRIIb)
T2 construct: extracellular domain; also called FcgRI; 1a; not shown: His tag at the C terminus
T2 sequence (P12314 16-292): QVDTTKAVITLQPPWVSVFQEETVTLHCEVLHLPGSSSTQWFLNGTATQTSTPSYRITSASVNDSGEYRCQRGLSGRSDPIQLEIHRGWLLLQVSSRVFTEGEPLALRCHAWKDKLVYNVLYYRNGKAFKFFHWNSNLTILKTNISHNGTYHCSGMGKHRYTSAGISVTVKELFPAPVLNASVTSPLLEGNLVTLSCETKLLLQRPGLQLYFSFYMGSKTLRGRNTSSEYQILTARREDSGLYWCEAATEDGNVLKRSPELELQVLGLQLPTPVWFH

[2] = biological target: T1, FcγRIIb; assay: SPR (Biacore), antibody captured, FcγR as analyte; binding as % of GpH7-A5/GpH7-B3/GpL16-k0
[3] = biological target: T2, FcγRIa; assay: as above

| Ia/IIb He_1a/2b [1] | He/Con_2b [2] | He/Con_1a [3] | Binder |
| --- | --- | --- | --- |
| 0.6 ratio | 172 % of control | 103 % of control | GpH7-A5/GpH7-B3 variant A327_09D/GpL16-k0 (antibody, human IgG1, kappa, heterodimerized IgG1; alteration in the GpH7-B3 H chain only; also called He Ab) heavy 1: not shown heavy 2: not shown light: DIVMTQSPLSLPVTPGEPASISCQASESLVHSNRNTYLHWYLQKPGQSPQLLIYKVSNRFSGVPDRFSGSGSGTDFTLKISRVEAEDVGVYYCSQNTHVPPTFGQGTKVEIERTVAAPSVFIFPPSDEQLKSGTASVVCLLNNFYPREAKVQWKVDNALQSGNSQESVTEQDSKDSTYSLSSTLTLSKADYEKHKVYACEVTHQGLSSPVTKSFNRGEC |
| 0.74 ratio | 140 % of control | 103 % of control | GpH7-A5/GpH7-B3 variant A327_10E/GpL16-k0 (antibody, human IgG1, kappa, heterodimerized IgG1; alteration in the GpH7-B3 H chain only; also called He Ab) heavy 1: not shown heavy 2: not shown light: DIVMTQSPLSLPVTPGEPASISCQASESLVHSNRNTYLHWYLQKPGQSPQLLIYKVSNRFSGVPDRFSGSGSGTDFTLKISRVEAEDVGVYYCSQNTHVPPTFGQGTKVEIERTVAAPSVFIFPPSDEQLKSGTASVVCLLNNFYPREAKVQWKVDNALQSGNSQESVTEQDSKDSTYSLSSTLTLSKADYEKHKVYACEVTHQGLSSPVTKSFNRGEC |
| 0.51 ratio | 199 % of control | 102 % of control | GpH7-A5/GpH7-B3 variant L328_09D/GpL16-k0 (antibody, human IgG1, kappa, heterodimerized IgG1; alteration in the GpH7-B3 H chain only; also called He Ab) heavy 1: not shown heavy 2: not shown light: DIVMTQSPLSLPVTPGEPASISCQASESLVHSNRNTYLHWYLQKPGQSPQLLIYKVSNRFSGVPDRFSGSGSGTDFTLKISRVEAEDVGVYYCSQNTHVPPTFGQGTKVEIERTVAAPSVFIFPPSDEQLKSGTASVVCLLNNFYPREAKVQWKVDNALQSGNSQESVTEQDSKDSTYSLSSTLTLSKADYEKHKVYACEVTHQGLSSPVTKSFNRGEC |
| 0.74 ratio | 137 % of control | 101 % of control | GpH7-A5/GpH7-B3 variant A330_05P/GpL16-k0 (antibody, human IgG1, kappa, heterodimerized IgG1; alteration in the GpH7-B3 H chain only; also called He Ab) heavy 1: not shown heavy 2: not shown light: DIVMTQSPLSLPVTPGEPASISCQASESLVHSNRNTYLHWYLQKPGQSPQLLIYKVSNRFSGVPDRFSGSGSGTDFTLKISRVEAEDVGVYYCSQNTHVPPTFGQGTKVEIERTVAAPSVFIFPPSDEQLKSGTASVVCLLNNFYPREAKVQWKVDNALQSGNSQESVTEQDSKDSTYSLSSTLTLSKADYEKHKVYACEVTHQGLSSPVTKSFNRGEC |
| 0.68 ratio | 142 % of control | 96.3 % of control | GpH7-A5/GpH7-B3 variant I332_10E/GpL16-k0 (antibody, human IgG1, kappa, heterodimerized IgG1; alteration in the GpH7-B3 H chain only; also called He Ab) heavy 1: not shown heavy 2: not shown light: DIVMTQSPLSLPVTPGEPASISCQASESLVHSNRNTYLHWYLQKPGQSPQLLIYKVSNRFSGVPDRFSGSGSGTDFTLKISRVEAEDVGVYYCSQNTHVPPTFGQGTKVEIERTVAAPSVFIFPPSDEQLKSGTASVVCLLNNFYPREAKVQWKVDNALQSGNSQESVTEQDSKDSTYSLSSTLTLSKADYEKHKVYACEVTHQGLSSPVTKSFNRGEC |
| 0.64 ratio | 147 % of control | 93.4 % of control | GpH7-A5/GpH7-B3 variant I332_09D/GpL16-k0 (antibody, human IgG1, kappa, heterodimerized IgG1; alteration in the GpH7-B3 H chain only; also called He Ab) heavy 1: not shown heavy 2: not shown light: DIVMTQSPLSLPVTPGEPASISCQASESLVHSNRNTYLHWYLQKPGQSPQLLIYKVSNRFSGVPDRFSGSGSGTDFTLKISRVEAEDVGVYYCSQNTHVPPTFGQGTKVEIERTVAAPSVFIFPPSDEQLKSGTASVVCLLNNFYPREAKVQWKVDNALQSGNSQESVTEQDSKDSTYSLSSTLTLSKADYEKHKVYACEVTHQGLSSPVTKSFNRGEC |
| 0.59 ratio | 172 % of control | 101 % of control | GpH7-A5/GpH7-B3 variant L328_10E/GpL16-k0 (antibody, human IgG1, kappa, heterodimerized IgG1; alteration in the GpH7-B3 H chain only; also called He Ab) heavy 1: not shown heavy 2: not shown light: DIVMTQSPLSLPVTPGEPASISCQASESLVHSNRNTYLHWYLQKPGQSPQLLIYKVSNRFSGVPDRFSGSGSGTDFTLKISRVEAEDVGVYYCSQNTHVPPTFGQGTKVEIERTVAAPSVFIFPPSDEQLKSGTASVVCLLNNFYPREAKVQWKVDNALQSGNSQESVTEQDSKDSTYSLSSTLTLSKADYEKHKVYACEVTHQGLSSPVTKSFNRGEC |
| 0.71 ratio | 141 % of control | 100 % of control | GpH7-A5/GpH7-B3 variant L328_14T/GpL16-k0 (antibody, human IgG1, kappa, heterodimerized IgG1; alteration in the GpH7-B3 H chain only; also called He Ab) heavy 1: not shown heavy 2: not shown light: DIVMTQSPLSLPVTPGEPASISCQASESLVHSNRNTYLHWYLQKPGQSPQLLIYKVSNRFSGVPDRFSGSGSGTDFTLKISRVEAEDVGVYYCSQNTHVPPTFGQGTKVEIERTVAAPSVFIFPPSDEQLKSGTASVVCLLNNFYPREAKVQWKVDNALQSGNSQESVTEQDSKDSTYSLSSTLTLSKADYEKHKVYACEVTHQGLSSPVTKSFNRGEC |
